Molecular target: the molecule itself
Experiment: native gel or EMSA

B1: UNC-103::GFP (natural protein, C. elegans, UniProt G5EFJ9 1-829, looked up)
chain: MKTAVFGRDSGEPGSPCGAPPSLTFTPPATLVPPTHHHSRSTNRGGVSGTGGGGSGGLQGAPGAGGPRASHSSRRTSRLHNNVSALGVLSLGADVLPEYKLQPTRIHHCTIVHYSPFKAVWDWIILLLVIYTAVFTPYVAAFLLRELQDTAKKSRFTEPLEIVDLIVDIMFIVDIIINFRTTYVNENDEACQVVSDPGKIATHYFKGWFIIDMVAAVPFDLLLVSTNSDETTTLIGLLKTARLLRLVRVARKLDRYSEYGAAVLLLLMATFALIAHWLACIWYAIGSAELSHKEYTWLHQLSKQLAQPYTSTNGTIPTGGPTLKSRYVTSLYFTLSTITSIGFGNVSATTDSEKIFTIIMMILGSLMYASVFGNVSAIIQRLYSGTARYHTEMSRLREFIRFHQIPNPLRQRLEEYFQHAWSYTNGIDMNLVLKGFPDCLQADICLHLNRNLLSGCAAFAGSTPGCLRALSMRFRTTHSPPGDTLVHRGDILTGLYFIARGSVEILNDDNTVMGILGKDDIFGENPLLYDEVGKSSCNVRALTYCDLHKILRDDLLDVLDMYPEFAETFCKNLTITYNLRDDAQSLRKKFDRHKLLRMSSSMNKDRYTTPPDGDHGNAAVRRSAESVSRCDSNPIDRRQSAGSRSSSRCSPPHAALTATRSEATPLLRRSTNHHEEDDALFDDIRAFARGNTVTMSPTVAGNSVSPTTAIHNDGIHSQQLSDRSDDYEERRANMFGRRLESIESQMERMQNKFNSDMETLIKLVKEQSIIRNNGSSNEEPNARYRPNNYISSAIRLPNGGGGGVVDEMRVSRLSSHEPPTPTQETDTIL
  stoichiometry N: 4
